Laboratory results taken from paper PMC6778148.

Molecular target: fluorescein-labelled divalent stargazin-derived peptide ligand
Assay: fluorescence polarisation; direct titration: 50 nM fluorescein-labelled stargazin ligand (divalent or monovalent) against increasing concentrations of PDZ domains; apparent KD

Kd: 199 nM
Substance: SAP97 tandem PDZ domains 1 and 2 (SAP97-12), from pET-NO (domain or fragment)
